Experiment: yeast display, Sf9 membrane polyspecificity reagent, FACS + sequencing; frameworks hold sequencing errors
Procedure, shortened: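 Synthetic nanobody libraries on Saccharomyces cerevisiae BJ5465 were galactose-induced for 36–48 hours, stained 1 hour at 4 °C with 10% biotinylated, detergent-solubilized Sf9 membrane reagent and enriched on streptavidin microbeads. FACS then separated cells into low and high (top ~1%) gates by anti-HA (expression) and streptavidin (reagent binding) fluorescence. Genes were colony-PCR amplified, MiSeq 2 × 250 sequenced and CDR-length filtered. A clone's polyreactivity label is that of its gate of origin.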

Row | Sequence | polyreactivity (PSR sort gate)
1 | QVQLVESGGGLVQAGGSLRLSCAASVRTFYYYAMGWYRQAPGKERELVARISRGGSTNYADSVKGRFTISRDNAKNTVYLLMNSLKTEDTAVYYCAKSISYTGRYWGYDYWGQGTQVTVSS | high polyreactivity
2 | QVQLVESGGGLDQAGGSLRLSCAASGSTFGYYAMAWYRQSPGKERELVAAITSGASTNYADSVKGRFTISRDNAKNTVYLQMNSLKPEDTAVYYCAAGFQTRTPLNEFDYWGQGTQVTLSS | low polyreactivity
3 | QVQLVESGGGLVQAGGSLRLSCAASGFTFKYYAMGWYRQAPRKERELVAAITSRGGSTYYADSVKGRFTISRDNAKNTVYLQMNSLKPEDTAVYYCAARFRKIGVAFDYWGQGTQVTVSS | high polyreactivity
4 | QVQLVESGGGLVQAGGSLRLSCDASGYTFRRYAMGWYIQAPGKEREMVAAITNSGGSTYYADSVKGRFTISRDNAKNTVYLQMNSLKPEDTAVYYCVALRSAGAYDYWGQGTQVTVSS | low polyreactivity
5 | QVQLVESGGGLVQAGGSLRLSCAASGSTFYDYAMGWYRQAPWKERELVAAITSGGSTYADSVKGRFTISRYNAKNTVYLQMNSLKPEDTAVYYCNKDFVVEYWWHHVYVYYYLGDYWGQGTQVTVSS | low polyreactivity
6 | QVQLQESGGGLVQAGGSLRMSCAASGNIFDADIMGWSRQAPGKERELVASNTDGRRTNYADSVKGRYTISRDSEKNTVYLQMNSLKAEDTAEYYCAAIAYPVVPTSFDYDCDYFHWGQGTQVTVSS | high polyreactivity
7 | QVQLVESGGGLVQAGGSLRLSCAASGGTFGSYAMGWYRQAPGKERELVAAIDYSGADTYYADSVKGRFTISRDNAKNTVFLQMNSLKPEDTAVYYCNAEFESGHDLDWYDYWGQGTQVTVSS | low polyreactivity
8 | QDQLVESGGGLVQAGGSLRLSCAASGSNYKYYPMGWYRTAPGKERELVAAITWGGGSTYYADSVKGRFTISRDNAKNTFYLQLNSLKPEDTAVYYCAASLFPYQYDAYFSHRKAFYYWGQGTQVTVSS | high polyreactivity
9 | QVQLVESGGGLVQAGGSLRLSCAASGSTFKYYGMGWYRQAPGKERELVASISSSGTRTYYADSVKGRFTISRDNAKYTVYLQMNSLKPEDTAVYYCAADSYATYFLYDSWGQGTQVTVSS | low polyreactivity
10 | QVQLVESGGGLVQAGGSLRLSCAASGNTFNRYAMGWYRQAPGKESELVATISYRGGSTSYADSVKGRFTISRDNAKNTVYLQMNSLKPEDTAVYYCATEEGYVLYKYYSWGQGTQVTVSS | low polyreactivity
11 | QVQLVESGGVLVQAGGSLPLSCAASGRILARNAMGWYRQAPGNERELVAAITSSTDSTYYADSVKGRFTISRDNAKNTVYLQMNSLKPEDTAVYYCATVVRLYRGRYSYDYWGQGTQVTVSS | high polyreactivity
12 | QVQLVESVGGLVQAGRSLRLSCAASGNTFLRYAMGWYRQAPGKERELVAAISRSGGSTYYADSVKGRFTISRDNAKNTVYLQMNSLKPEDTAVYYCAARRSSQPDKGYYYWGQGTQVTVSS | high polyreactivity
13 | QVQLVESGGGLVQAGGSLRLSCAASGSTFNGYAMGWYRQAPGKERELVAAISWRGGSTYYADSVKGRFTISRDNAKNTVYLQMNSLKPEDTAVYYCNTLLYYGHRYYYWGQGTQVTVSS | high polyreactivity
14 | QVQLVESGGGLVQAGGSLRLSCAASGRIFYNYAMGWSRQAPGKERELVAANSGSGGSTYYADSVKGRFTISRDSAMNTVYFQMNSLKPEDTAVYYCSTSGPQYYSRNFDYWGQGTQVTVSS | low polyreactivity
15 | QVQLVESGGGLVQAGGSLSLTCDAYGRTIYKYGMGWYREAPGKERDLVARINSNGGSTYYADSVKGRFTISRDNAKNTVYLELISLKPEDTAVYYCARSYVRSYGYYYWGQGTQVTVSS | low polyreactivity
16 | QVQLVESGGGLVQAGGSLRLSCAASGSISFLYTMGWYRQAPGKERELVAAITGSTASTYYADSVKGRFTISSDYAKNTVYLQMKSLKPEDTAVYYCAAYWYAVGYWVSRDYWGQGTQVTVSS | low polyreactivity
17 | QVQLVESGGGLVQAGGSLRLSCAASGFTFDAYTMGWYRQAPGKERELVAAINWSGDTTYYADSVKGRFTISRDNAKNTVYFQMNSLKPEDTAVYYCAAVWWIYGVWFDYWGQGTQVTVSS | high polyreactivity
18 | QLQLVESGGGLDQAGCSLRLSCAASRTIITRNAMGWYRPAPGKESELVASINSGGSTYYADSVKGRFTISRDNAKNTVYLQMNSLKPDDTAVYYCAVEEDRYYYDDYDYWGQGTQVTVSS | low polyreactivity
19 | QVQLVESGGGLVQAGGILRLSCAASGSTFRIYAKGWYRPAPGKERELVAGIRSSGGSTYYADSVKGRFTISRDKAKNTDYLQLNSLKPEDTAVYYCAKRHPYSWGSYQRYNYWGQGTQVTVSS | low polyreactivity
20 | QVQLVESGGVLVQAGGSLRLTCAASGRTFGHYAMGWYRQAPGKERELVAANTSSAGRTRYADSVKGRFTISRDYAKNTVYLQMNSLKPEDTAVYYCAVAEGYSPAYLRDYWGQGTQVTVSS | high polyreactivity
21 | QVQLVESGGGLVQAGCSLRLSCAASGRIFSRYTMGWSRQAPGKERELVAAISSGGSTYYADSVKGRFTISLDNAKNTVYFQMNSLKPEDTAVYYCNTRYVGQRSTWVDQVRRYDYCGQGTQVTVSS | high polyreactivity
22 | QVQLVESGGGLVQAGGSLRLSCAASGITFEGYAMGRYRQAPGKERELVAAITGSGSTTYYADSVKGRFTISRDNAKNTVYLQMNSLKPEDTAVYYCAADVSYKLYWGQGTQVTVSS | low polyreactivity

Row | Sequence | polyreactivity (PSR sort gate)
23 | QVQLVESGGGLVQAGGSLRLSSAASRSIFDYYAMGWYRQAPGKEREFVAAISESSDSTYYADSVKGRFTISRDNAKNTVYLQMNSLKPEDTAVYYCAGQRGGPFPRVVDLYDYWGQGTQVTVSS | low polyreactivity
24 | QVQLVESGGGLVQAGGSLRLSCAASGRTFGRYAMGWSRQAPGKERELVATITSGGSTNYADSVKGRFTISRDNAKNTVYLQMNSLKPEDTAVYYCAAEFSPSRWAYSEGALRYNYWGQGTQVTVSS | low polyreactivity
25 | QVQLVESGGGLVQARGSLRLSCAASGFILTYYAMGRYRQAPGKEMELVATISSGGGSTYYADSVKGRFTISRDNAKNTVYLQMNSLKPEDTAVYFCAASRRMTGIRYINRYEYWGQGTQVTVSS | high polyreactivity
26 | QVQLVESGGGLVQAGGSLRLSCAASGFIFRRNAMGWYRQAPGKEREFVAAITWSGGSTYYADSVKGRFTISRDNAKDTVYLQMNSLKPEDTAVYYCAATYSQYWYTKYLNSYPGYDYWGQGTQVTVSS | low polyreactivity
27 | QVQLVESGGGLVQAGGSHRLSCAASGITFRWYTMGWYRQAPGKERELVAAITGSGCTTYYADSVKGRFTISRDNAKNNVYLQMYSLKPEDSAVYYCAAEFYGLVYVPPYDYWGQGTQVTVSS | high polyreactivity
28 | QVQLVESGLGLVQAGVSLRLSCAATGLTFVYYAMGWYRPAHGKERELVAAIDWSGGTTYYADSVKGRFTISRDHAKNTVYLQMNSLKPEDTAVYYCAADVVEEDDLEFYYWGQGTQVTVSS | high polyreactivity
29 | QVQLVESGGGLVQAGGSLRLSCAASGFIFDQYAMGWYRQAPGKERELVAAITTGGDTNYADSVKGRFTISRDNAKNTVYLQMISLKPDDSAVYYCAAKKWLTSGAFDRVFIEFDYWGQGTQVTVSS | low polyreactivity
30 | QVQLVESGGGLVQAGGSLRLSCAASGITFYKYAMGWYRQAPGKERELVAAITSTGGRTYYADSVKGRFTISGDNAKNSVYLQMNSLKPEDTAVYYCAKVFNQFIEHDYWGQGTQVTVSS | low polyreactivity
31 | QVQLVESGGGLVQAGGSLRLSCAASGSTFSFYAMGWYRQAPGKERELVAAITWTTGSTYADSVKGRFTISRDNAKNTVYLQMNSLKPEDTAVYYCAAKKFRRSRDSYYWGPGTQVTVSS | high polyreactivity
32 | QVQLVESGGGLVQAGGSLRLSCAASGRNFTSNAMGWYRQAPGKERELVAAITQSGGSTYYADSVKGRFTISRDNAKNTVYLQMNSLKPVDTAVYYCNAETTGRTEYNYWGQGTQVTVSS | low polyreactivity
33 | QVQLVESGGGLVQSGGSLRLSCAASGSIFTGYAMGWYRQAPGKERELVAAITGRGTRTYYADSLKGRFTISRDNANNTVSLQMNSLKPEDTAVYYCAAPVGASSYRDYYWGQGTQVNVSS | high polyreactivity
34 | QVQLVESGGGLVQAGGSLRLSCAASGFTFAFYAMGWYRQAPGKERELVAAISKNDGTTYYADSVKGRFTISRHTAKNTVYLLMNSLKPEDTAVYYCAAESCYPVYTYVSSGDYWGQGTQVTVSS | low polyreactivity
35 | QVQLVESGGGLVQAGGSLRLTCAASGSIFVRNSMGWYRQAPGKERELVAAIIRSGGSTYYADSVKGRFTISRDNAKNTVYLQMNSLKPEDTAVYYCNALIRYNRYTGRDYWGQGTQVTVSS | high polyreactivity
36 | QVQLVESGGGLVQAGGSLRLSCAASGRTFWYYAMGWYRQAPGKERELVAAISRNGGSTYYEDSVKGRFTISRDNAKNTVYLQMNSLKPEDTAVYYCAADGWYTRKYDYWGQGTQVTVSS | high polyreactivity
37 | QVQLVESGGGLFQAGGSLRLSCAASGRTFVHNAMGWYRQAPGKERDLVAVITSGARTTYADSVKGRFTISRDNAKNTVYLQMNSLKPEDTAVYYFAAGTFSVIFSYKYRHYYYWGQGTQVTVSS | low polyreactivity
38 | QVQLVESGGGLVQAGGSLRLSCAASGFIFFTYAMGWYRQAPGKERELVADISSRGGSTYYADSVKGRFTISRDNAKNTVYLQMNSLKPEDTAVYYCARTRFWLRYRLFDYWGQGTQVTVSS | low polyreactivity
39 | QVQLVESGGCLVQAGGSLRLSCAASGRISVFYAMGWYRQAPGKERELVAAITRSGTTKYADSVKGRFTISRDNAKNTVYLQMNSLKPEDTAVYYCAVRRYRARFGYWGKGTQVTVSS | high polyreactivity
40 | QVQLVESGGGLVQAGGSLRLSCAASGGTFGYNVMGWYRQAPGKERELVAAISYSVGGTYYADSVKGRFTISRDNAMNTVYLQMNSLKPEDTAVYYCAATGRRRTYSEYEYWGQGTQVTVSS | high polyreactivity
41 | QVQLVESGGGLVQAGGSLRLSCAASGITFPDYAMGWYRQAPGKERELVATISSSGGNTYYADSVKGRFTISRDNAKNTVYLQMNSLKPEDTAVYYCATVSYYWGYDYWGQGTQVTVSS | low polyreactivity
42 | QVQLVESGAGLVQAGGSLSLSCAASGRIFDRYVMGWYRQAPGKERELVAAISDGGSTYYADSVKGRFTISRDNAKNTVYLQMNSLKPEDTAVYYCAAVRYNSRVSTTPSEMYYWGQGTQVTVSS | low polyreactivity
43 | QVQLEESGGGLVQAGGSLRLSCAASGRIFGYYDMGWYRQAPGKERELVARITRGGGTTYYADSVKGRFTISRDNAKNTVYLQMNSLKPEDTAVYYCAAVRSWWHTHYNYDYWGQGTQVTVSS | high polyreactivity
